According to patent US20200040071A1 (HUB BIOTECH, published 2020):

T1: endothelial monocyte activating polypeptide II (EMAP II) (UniProt Q12904 147-312, limits assumed)
T1 construct: also called EMAP II antigen; EMAP II protein
T1 sequence (looked up): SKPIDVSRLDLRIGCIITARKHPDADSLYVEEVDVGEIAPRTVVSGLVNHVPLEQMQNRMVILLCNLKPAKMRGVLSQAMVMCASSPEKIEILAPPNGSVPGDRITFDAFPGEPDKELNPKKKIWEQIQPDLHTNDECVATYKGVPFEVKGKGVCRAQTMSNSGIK


Tests used:
[1] = target: T1, endothelial monocyte activating …; assay: SPR, Reichert SR7500DC, EMAP II fixed to PEG chip, antibody flowed
Experimental: (§1) A surface plasmon resonance (SPR) method was used to further compare the antigen-binding abilities between BAP015-hum03 and BAP072-EMAP II-1. Reichert SR7500DC system (Reichert Technologies, Depew, N.Y.) was used for SPR, and Scrubber2 software was used for data collection. 2.5 μg of EMAP II protein was fixed to PEG chip (Reichert Technologies), after which BAP015-hum03 and BAP072-EMAP II-1 antibodies were flowed thereinto to compare the binding abilities therebetween.

[2] = target: T1, endothelial monocyte activating …; assay: SPR (Reichert SR7500DC), EMAP II protein fixed to a PEG chip (ligand printed on the sheet as hAIMP1), antibody as analyte at 0-40 nM
Experimental: as §1

[3] = target: T1, endothelial monocyte activating …; assay: ELISA, EMAP II coated at 1 ug/ml, anti-IgG-HRP detection, absorbance at 450 nm
Experimental: (§2) Each well of a 96-well plate was coated with 100 μl of EMAP II antigens at a concentration of 1 μg/ml, and incubated at 37° C. for 2 hours. The coated antigens were blocked with 5% BSA and washed with washing buffer solution. […] The resulting ones were washed 3 times with washing buffer solution, then treated with anti-IgG-HRP antibodies, and then incubated for 1 hour. Then, the resulting ones were washed 3 times with washing buffer solution, and treated with a substrate for 30 minutes at room temperature. Color development was performed, after which stop solution was inserted thereinto, such that absorbance was measured at a wavelength of 450 nm to test an antigen-binding ability of the antibodies.

[4] = target: T1, endothelial monocyte activating …; assay: ELISA, plate coated with EMAP II antigen (1 µg/ml), detection with anti-IgG-HRP, OD 450 nm
Experimental: as §2

| Binder | Kd [1] [nM] | koff [2] [s⁻¹] | kon [2] [M⁻¹ s⁻¹] | fold antigen-binding ability against BAP015-hum03 [1] [fold] | concentration of antibodies to reach O.D 2.5 [3] [ng/mL] | fold antigen-binding ability against the other antibodies (BAP015-hum03, BAP072-EMAP II-2, II-3, II-4) [3] [fold] | EC50 (read off the curve) [4] [ng/mL] |
| --- | --- | --- | --- | --- | --- | --- | --- |
| BAP015-hum03 antibody (antibody, V domains shown, The printed variable regions end at FGQG (light) and WGQG (heavy), so they seem to stop short of the end of framework 4; also called anti-EMAP II parent antibody; control group) VH: EVQLVQSGAEVKKPGATVKISCKVSGYTFTSYTMHWVRQAPGQGLEWMGYINPSSGFTNYNQKFKDRVTISADKSISTAYLQWSSLKASDTAMYYCASRFAYWGQG VL: AIQLTQSPSSLSASVGDRVTITCKASQDVSTAVAWYQQKPGKAPKLLIYSASYRYTGVPSRFSGSGSGTDFTFTISRLEPEDFAVYYCQQHYSIPYTFGQG | 0.709 | 5.38e-05 | 75900 | – | – | – | – |
| BAP072-EMAP II-1 antibody (antibody, V domains shown) VH: EVQLVQSGAEVKKPGATVKISCKVSGYTFTSYTMHWVRQAPGQGLEWMGYINPRSGFTNYRQKFKHRVTISADKSISTAYLQWSSLKASDTAMYYCFSRFAYWGQG VL: AIQLTQSPSSLSASVGDRVTITCKASQDVSTAVAWYQQKPGKAPKLLIYSASYRYWGVPSRFSGSGSGTDFTFTISRLEPEDFAVYYCQQHYSIPYTFGQG | 0.063 | 1.7e-06 | 27000 | ~10 | ≤ 10 | ~10 | ~7 |
| BAP072-EMAP II-2 antibody (antibody, V domains shown, also called BAP072-EMAP 11-2) VH: EVQLVQSGAEVKKPGATVKISCKVSGYTFTSYTMHWVRQAPGQGLEWMGYTNPSSGFTNYTQKFKDRVHISADKSISTAYLQWSSLKASDTAWYYCASRFAYWGQG VL: AIQLTQSPSSLSASVGDRVTITCKASQDVSTAVAWYQQKPGKAPKLLIYSASYRYWGVPSRFSGSGSGTDFTFTISRLEPEDFAVYYCQQHYSIPYTFGQG | – | – | – | – | ≥ 100 | – | – |
| BAP072-EMAP II-3 antibody (antibody, V domains shown, also called BAP072-EMAP 11-3) VH: EVQLVQSGAEVKKPGATVKISCKVSGYTFTSYTMHWVRQAPGQGLEWMGYINPRSGFTNYRQKFKHRVTISADKSISTAYLQWSSLKASDTAMYYCFSRFAYWGQG VL: AIQLTQSPSSLSASVGDRVTITCKASQDVSTAVAWYQQKPGKAPKLLIYSASYGYTGVPSRFSGSGSGTDFTFTISRLEPEDFAVYYCQQHYSIPYTFGQG | – | – | – | – | ≥ 100 | – | – |
| BAP072-EMAP II-4 antibody (antibody, V domains shown) VH: EVQLVQSGAEVKKPGATVKISCKVSGYTFTSYTMHWVRQAPGQGLEWMGYTNPSSGFTNYTQKFKDRVHISADKSISTAYLQWSSLKASDTAWYYCASRFAYWGQG VL: AIQLTQSPSSLSASVGDRVTITCKASQDVSTAVAWYQQKPGKAPKLLIYSASYGYTGVPSRFSGSGSGTDFTFTISRLEPEDFAVYYCQQHYSIPYTFGQG | – | – | – | – | ≥ 100 | – | – |
